B1: H2-5-F10: 9-10A TS + F87V, L75A, I263A, T268A, L437A (protein, listed as Bacillus megaterium)
chain: TIKEMPQPKTFGELKNLPLLNTDKPVQALMKIADELGEIFKFEAPGRVTRYLSSQRLIKEACDESRFDKNLSQAAKFARDFAGDGLVTSWTHEKNWKKAHNILLPSFSQQAMKGYHAMMVDIAVQLVQKWERLNADEHIEVSEDMTRLTLDTIGLCGFNYRFNSFYRDQPHPFIISMVRALDEVMNKLQRANPDDPAYDENKRQFQEDIKVMNDLVDKIIADRKARGEQSDDLLTQMLNGKDPETGEPLDDGNIRYQIITFLAAGHEATSGLLSFALYFLVKNPHVLQKVAEEAARVLVDPVPSYKQVKQLKYVGMVLNEALRLWPTAPAFSLYAKEDTVLGGEYPLEKGDEVMVLIPQLHRDKTVWGDDVEEFRPERFENPSAIPQHAFKPFGNGQRACIGQQFALHEATLVLGMMLKHFDFEDHTNYELDIKETATLKPKGFVVKAKSKKIPLGGIPSPSTEQSAKKVRKKAENAHNTPLLVLYGSNMGTAEGTARDLADIAMSKGFAPQVATLDSHAGNLPREGAVLIVTASYNGHPPDNAKQFVDWLDQASADEVKGVRYSVFGCGDKNWATTYQKVPAFIDETLAAKGAENIADRGEADASDDFEGTYEEWREHMWSDVAAYFNLDIENSEDNKSTLSLQFVDSAADMPLAKMHGAFSTNVVASKELQQPGSARSTRHLEIELPKEASYQEGDHLGVIPRNYEGIVNRVTARFGLDASQQIRLEAEEEKLAHLPLAKTVSVEELLQYVELQDPVTRTQLRAMAAKTVCPPHKVELEALLEKQAYKEQVLAKRLTMLELLEKYPACEMKFSEFIALLPSIRPRYYSISSSPRVDEKQASITVSVVSGEAWSGYGEYKGIASNYLAELQEGDTITCFISTPQSEFTLPKDPETPLIMVGPGTGVAPFRGFVQARKQLKEQGQSLGEAHLYFGCRSPHEDYLYQEELENAQSEGIITLHTAFSRMPNQPKTYVQHVMEQDGKKLIELLDQGAHFYICGDGSQMAPAVEATLMKSYADVHQVSEADARLWLQQLEEKGRYAKDVWAG
modifications: cytochrome P450NADPH-P-450 reductase precursor, cytochrome P450 (BM3), CYP102A1
notes: 9-10A TS + F87V, L75A, I263A, T268A, L437A
B2: BM3-CIS-T438S: BM3-CIS + T438S (protein, listed as Bacillus megaterium)
chain: TIKEMPQPKTFGELKNLPLLNTDKPVQALMKIADELGEIFKFEAPGRVTRYLSSQRLIKEACDESRFDKNLSQALKFARDFAGDGLVTSWTHEKNWKKAHNILLPSFSQQAMKGYHAMMVDIAVQLVQKWERLNADEHIEVSEDMTRLTLDTIGLCGFNYRFNSFYRDQPHPFIISMVRALDEVMNKLQRANPDDPAYDENKRQFQEDIKVMNDLVDKIIADRKARGEQSDDLLTQMLNGKDPETGEPLDDGNIRYQIITFLIAGHEATSGLLSFALYFLVKNPHVLQKVAEEAARVLVDPVPSYKQVKQLKYVGMVLNEALRLWPTAPAFSLYAKEDTVLGGEYPLEKGDEVMVLIPQLHRDKTVWGDDVEEFRPERFENPSAIPQHAFKPFGNGQRACIGQQFALHEATLVLGMMLKHFDFEDHTNYELDIKETLSLKPKGFVVKAKSKKIPLGGIPSPSTEQSAKKVRKKAENAHNTPLLVLYGSNMGTAEGTARDLADIAMSKGFAPQVATLDSHAGNLPREGAVLIVTASYNGHPPDNAKQFVDWLDQASADEVKGVRYSVFGCGDKNWATTYQKVPAFIDETLAAKGAENIADRGEADASDDFEGTYEEWREHMWSDVAAYFNLDIENSEDNKSTLSLQFVDSAADMPLAKMHGAFSTNVVASKELQQPGSARSTRHLEIELPKEASYQEGDHLGVIPRNYEGIVNRVTARFGLDASQQIRLEAEEEKLAHLPLAKTVSVEELLQYVELQDPVTRTQLRAMAAKTVCPPHKVELEALLEKQAYKEQVLAKRLTMLELLEKYPACEMKFSEFIALLPSIRPRYYSISSSPRVDEKQASITVSVVSGEAWSGYGEYKGIASNYLAELQEGDTITCFISTPQSEFTLPKDPETPLIMVGPGTGVAPFRGFVQARKQLKEQGQSLGEAHLYFGCRSPHEDYLYQEELENAQSEGIITLHTAFSRMPNQPKTYVQHVMEQDGKKLIELLDQGAHFYICGDGSQMAPAVEATLMKSYADVHQVSEADARLWLQQLEEKGRYAKDVWAG
modifications: cytochrome P450NADPH-P-450 reductase precursor, cytochrome P450 (BM3), CYP102A1

Tests used:
[1] = P450BM3 compilation plate screen (GC, cyclopropane peaks); format: biochemical; conditions: P450BM3 variants
[2] = N—H insertion, aniline with ethyl diazo acetate (EDA); format: biochemical
Excerpt: We have found a variety of P450 variants to be general catalysts for carbenoid N—H insertion. We combined aniline with EDA in the presence of a reductant (Na2S2O4) under argon atmosphere and tested the mixture with seven P450BM3 variants previously identified as competent catalysts for cyclopropanation (Coelho, P. et al., Science. 2013, 339, 307-310). In choosing this set of P450s, we hypothesized that cyclopropanation activity could correlate with ability to generate the iron-carbenoid intermediate that is also necessary for N—H insertion. Whereas wild type BM3 (WT-BM3 (SEQ ID NO:1), Table 20, entry 1) provided only trace amounts of the desired product (4.3), a few variants gave 4.3 in good yields after 12 h at room temperature. In particular, variant H2-5-F10 which is derived from a thermostable P450BM3 lineage (Lewis, J. C. et al. ChemBioChem, 2010, 11, 2502-2505) and contains 15 mutation from WT-BM3 (SEQ ID NO:1), formed 4.3 in 47% yield and 473 turnovers (TTN) using 0.1% protein relative to EDA (entry 7). […] In contrast, when 1 mol % of the isolated hemin prosthetic group was used as catalyst, the single and double insertion products were produced in a 3.5 to 1 ratio (with a total product yield of 51%).
A representative procedure for P450-catalyzed N—H insertion is as follows. To an unsealed crimp vial, 60 μL of a P450 solution (67 or 133 μM) was added and the vial was sealed. A 12.5 mM solution of sodium dithionite in phosphate buffer (0.1 M, pH=8.0) was degassed by bubbling with argon in a 6 mL crimp-sealed vial. The headspace of the 2 mL vials containing P450 solution were flushed with argon (no bubbling). The buffer/dithionite solution (360 μL) was then added to each reaction vial via syringe, and the gas lines were disconnected from the vials. 10 μL of an 800 mM stock of aniline was added via a glass syringe, followed by 10 μL of a 340 mM stock of EDA (both stocks in MeOH). The reaction vials were then placed in a tray on a plate shaker and left to shake at 40 rpm. The final concentrations of the reagents were typically: 20 mM aniline, 8.5 mM EDA, 10 mM Na2S2O4, and 10 or 20 μM P450. After 12 h at 25° C., the vials were removed from the shaker and uncapped and 1 mL of cyclohexane was added, followed by 20 μL of a 20 mM solution of phenethyl alcohol (internal standard). The mixture was transferred to a 1.5 mL Eppendorf tube and vortexed and centrifuged (13,000×g, 1 min.). The organic layer was dried over sodium sulfate if necessary then analyzed by GC, with comparison to an authentically prepared sample that has been verified by proton NMR ([…], Varian, CDCl3).
Substitution is well-tolerated on the aniline partner on both the ortho and para positions. Reactions were analyzed by a Shimadzu GC with FID detector and J&W HP-5 column (30 m×0.32 mm, 0.25 μm film) and calibrated to an independently prepared sample of each product using phenethyl alcohol as internal standard. Reaction of aniline and EDA was also performed in milligram scale without any organic cosolvent to provide 4.3 in 65% isolated yield.
Calibration curves were plotted as follows. Yields of N—H insertion products were determined using calibration curves made with independently synthesized standards that have been verified by proton NMR, with comparison to known literature data (Baumann, L. K. et al. Organometallics. 2007, 26, 3995-4002; Anding, B. J. et al. Organometallics. 2013, 32, 2599-2607). Two stock solutions of product were made at 160 mM and 40 mM. To four or five samples containing 380 μL of buffer, product was added from either of the stock solutions such at a final concentration of 0.5-8.0 mM in 400 μL was obtained. 20 μL of internal standard was added to each eppendorf tube, then 1 mL of cyclohexane was added and the tubes were vortexed and centrifuged (13,000 ×g, 30 seconds). The organic layer was then analyzed by GC. The ratio of the areas under the internal standard and product peaks were plotted against the concentration for each solution. […]

[3] = N—H insertion, aniline with ethyl 2-diazopropanoate; format: biochemical; conditions: protein 20 μM, diazo 10.0 mM, aniline 20 mM
Method: The reactions shown in FIG. 37A were carried out with protein (20 μM), ethyl diazo acetate (8.5 mM), aniline (20 mM) and Na2S2O4 (10 mM) in phosphate buffer (pH 8) and allowed to shake at room temperature for 12 h. Yields are reported in parenthesis and TTN are presented in italics. Yields were determined by GC calibrated for each product. An isolated yield of 65% for compound 4.3 was determined for the milligram scale reaction run as follows: 25 mM EDA, 25 mM aniline, 25 μM protein, and 25 mM Na2S2O4. The reaction producing compounds 4.5 and 4.10 were carried out with protein (20 μM), ethyl diazo acetate (10.0 mM), aniline (20 mM) and Na2S2O4 (10 mM).
While substituted diazo compounds can also be used for insertion, the yield from N—H insertion of ethyl 2-diazopropanoate into aniline is only 26% (product 4.5). To improve efficiency of this reaction, we examined the reaction of ethyl 2-diazopropanoate with a variety of axial mutants. In particular, the axial mutant WT-AxA provided the desired product in 83% yield, compared to 8% yield and 1.7% yield with axial mutant WT-AxS and WT-BM3 heme domain, respectively (FIG. 37B).
(§1) The reactions shown in FIG. 37B were carried out with 10 μM catalyst loading, 20 mM aniline, 10 mM Na2S2O4 and 10 mM ethyl 2-diazopropanoate as described above. For the final entry in FIG. 37B, whole cells expressing BM3-CIS-T438S at 2.5 μM were used. See, U.S. Provisional Application No. 61/711,640 for the procedure for catalysis with whole cells.

[4] = N—H insertion, diethyl amine and 4.11 (lidocaine synthesis); format: biochemical; conditions: GC-MS
Method: Diazo amides are also competent substrates for this reaction, and alpha-amino amides like 4.10 (FIG. 37A) can be produced in moderate yields. This transformation is particularly valuable because diazo amides can give rise to important building block compounds like diamines Additionally, this transformation can be used for the synthesis of lidocaine, which we were able to prepare using diethyl amine and 4.11 in the presence of H2-5-F10 (Scheme 1). […] (hold 1 min), 100-140° C. (6° C./min), 140-260° C. (20° C./min), 260° C. (hold 3 min)

[5] = N—H insertion, aniline with ethyl 2-diazopropanoate, whole cells; format: cell-based; conditions: whole cells expressing enzyme at 2.5 μM
Method: as §1

Row | Molecule | ee (cis) ([1]; (R,S)-(S,R), chiral β-CDX GC) | de ([1]; diastereomeric excess = ([cis] − [trans])/([cis] + [trans])) | Absolute activity ([1]; sum of the area of the cyclopropane peaks over the area of the internal standard) | double insertion product ([2]; GC-MS and 1H NMR, milligram-scale reactions) | isolated yield of 4.3 ([2]; milligram scale, 25 mM EDA, 25 mM aniline, 25 μM protein, 25 mM Na2S2O4, no organic cosolvent) [%] | TTn ([2]; protein 10 uM, EDA 8.5 mM, aniline 20 mM, Na2S2O4 10 mM, 12 h) | % Yield ([2]; protein 10 uM, EDA 8.5 mM, aniline 20 mM, Na2S2O4 10 mM, 12 h, product 4.3) [%] | yield of product 4.5 [3] [%] | production of lidocaine [4] | enantioselectivity [5] [%] | yield of 4.5 [5] [%]
1 | B1 | −56 | −46 | 0.1412 | No double insertion product was observed | 65 | 473 | 47 | 26 | Production of lidocaine was observed |  | 
2 | B2 |  |  |  |  |  |  |  |  |  | 7 | 17

Source: patent publication US20150267232A1, “IN VIVO AND IN VITRO CARBENE INSERTION AND NITRENE TRANSFER REACTIONS CATALYZED BY HEME ENZYMES” (California Institute of Technology, priority 2012, published 2015)
